Reference: PMC7810988, “Inositol pyrophosphates promote the interaction of SPX domains with the coiled-coil motif of PHR transcription factors to regulate plant phosphate homeostasis” (Nature Communications, 2019)

B1: wild-type AtPHR1^280–360 (pMH-HT construct) (domain or fragment)
chain: not shown
notes: AtPHR1, Arabidopsis thaliana, residues 280-360 (coiled-coil domain); also called AtPHR1 CC; AtPHR^280–360; not shown: 6xHis, N-terminal, cleaved
B2: AtPHR1^280–360 KHR/A (domain or fragment)
chain: not shown
notes: AtPHR1, Arabidopsis thaliana, residues 280-360, KHR motif mutated to alanine; not shown: 6xHis, N-terminal, cleaved
B3: wild-type AtPHR1^222–358 (domain or fragment)
chain: not shown
notes: AtPHR1, Arabidopsis thaliana, residues 222-358 (MYB and CC domains only); also called AtPHR1 MYB-CC; untagged AtPHR1^222–358; not shown: 6xHis, N-terminal, cleaved
B4: full-length OsPHR2 (OsPHR2^1-426, wild type) (natural protein)
chain: not shown
notes: OsPHR2, rice MYB-CC transcription factor, residues 1-426, called full-length; also called wild-type OsPHR2; not shown: 8xHis, N-terminal, cleaved; Strep, N-terminal, cleaved; GB1, N-terminal, cleaved

Target: the molecule itself
Assay: SEC-RALS; size-exclusion chromatography with right-angle light scattering; 50 µL of 2–10 mg/mL protein, 20 mM HEPES pH 7.5, 150 mM NaCl, Superdex 200 increase 10/300 GL, 25 °C

| Protein | stoichiometry N | binding result |
| --- | --- | --- |
| B1 | 4 | – |
| B2 | – | binds |
| B3 | 2 | – |
| B4 | 4 | – |
